Laboratory results: US20200317744A1 (published 2020)
Residue numbers refer to the chain shown, from its start. One block for each molecule: values may come before it.

How the values were obtained:
[1] = target: murine IL-2 receptor βγc heterodimer (mIL-2Rβγc) (mouse) (UniProt P16297); assay: SPR; mIL-2Rγ immobilised, saturating mIL-2Rβ in solution
[2] = target: murine IL-2Rβ (mIL-2Rβ) (mouse) (UniProt P16297); assay: SPR; mIL-2Rβ immobilised
[3] = target: human IL-2Rβγc on YT-1 human natural killer cells (human) (UniProt P14784); assay: cell-based or functional assay
human IL-2Rβγc on YT-1 human natural killer cells (human), sequence (P14784 27-551): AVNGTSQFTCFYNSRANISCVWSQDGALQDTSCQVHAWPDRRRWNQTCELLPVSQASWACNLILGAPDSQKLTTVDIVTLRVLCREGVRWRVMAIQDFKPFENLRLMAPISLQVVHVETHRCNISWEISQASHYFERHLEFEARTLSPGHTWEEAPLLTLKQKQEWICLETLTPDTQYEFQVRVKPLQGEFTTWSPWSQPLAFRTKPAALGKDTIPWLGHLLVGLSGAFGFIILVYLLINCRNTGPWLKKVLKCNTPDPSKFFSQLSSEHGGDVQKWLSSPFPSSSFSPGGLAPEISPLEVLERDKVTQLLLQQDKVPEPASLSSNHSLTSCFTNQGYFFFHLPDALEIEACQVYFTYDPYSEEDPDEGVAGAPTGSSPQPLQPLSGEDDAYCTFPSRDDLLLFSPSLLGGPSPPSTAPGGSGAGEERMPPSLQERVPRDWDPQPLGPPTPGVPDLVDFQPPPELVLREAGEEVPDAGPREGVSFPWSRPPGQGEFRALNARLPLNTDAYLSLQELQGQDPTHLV

[4] = target: human IL-2 receptor βγc heterodimer (hIL-2Rβγc) (human) (UniProt P14784); assay: SPR; hIL-2Rγ immobilised, saturating hIL-2Rβ in solution
human IL-2 receptor βγc heterodimer (hIL-2Rβγc) (human), sequence (P14784 27-240, one chain of several): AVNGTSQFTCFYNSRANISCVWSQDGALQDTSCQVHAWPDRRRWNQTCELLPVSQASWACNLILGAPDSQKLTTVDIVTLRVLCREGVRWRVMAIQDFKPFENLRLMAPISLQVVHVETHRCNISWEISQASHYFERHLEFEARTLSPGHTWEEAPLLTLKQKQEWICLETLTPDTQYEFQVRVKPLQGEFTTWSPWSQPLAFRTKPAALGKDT

[5] = target: human IL-2Rβ (hIL-2Rβ) (human) (UniProt P14784); assay: SPR; hIL-2Rβ immobilised
human IL-2Rβ (hIL-2Rβ) (human), sequence (P14784 other isoform, or with tags, fused parts or gaps): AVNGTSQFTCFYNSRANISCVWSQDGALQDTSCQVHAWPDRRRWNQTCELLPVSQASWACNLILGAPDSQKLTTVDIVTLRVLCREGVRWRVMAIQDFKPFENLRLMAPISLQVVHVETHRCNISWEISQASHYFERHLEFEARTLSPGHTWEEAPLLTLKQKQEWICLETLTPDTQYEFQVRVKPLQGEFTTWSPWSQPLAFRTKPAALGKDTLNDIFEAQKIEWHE

[6] = target: IL-2Rβγc (species not stated); assay: biolayer interferometry
IL-2Rβγc (species not stated), sequence (P14784 whole entry, chain 1 of 2): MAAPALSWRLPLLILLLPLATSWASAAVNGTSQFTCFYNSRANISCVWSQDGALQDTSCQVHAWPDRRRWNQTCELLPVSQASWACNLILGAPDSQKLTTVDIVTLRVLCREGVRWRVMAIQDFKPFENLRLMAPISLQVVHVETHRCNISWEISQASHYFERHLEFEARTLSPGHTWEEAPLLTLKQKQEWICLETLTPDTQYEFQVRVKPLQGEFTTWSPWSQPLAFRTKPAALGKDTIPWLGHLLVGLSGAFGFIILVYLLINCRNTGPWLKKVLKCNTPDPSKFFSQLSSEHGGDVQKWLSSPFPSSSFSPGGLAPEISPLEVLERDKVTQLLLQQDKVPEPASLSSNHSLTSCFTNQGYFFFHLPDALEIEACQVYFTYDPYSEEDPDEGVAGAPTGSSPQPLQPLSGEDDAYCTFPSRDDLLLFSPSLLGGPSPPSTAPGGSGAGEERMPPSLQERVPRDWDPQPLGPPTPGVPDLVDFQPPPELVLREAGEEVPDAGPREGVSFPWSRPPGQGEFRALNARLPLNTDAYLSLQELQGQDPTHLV
IL-2Rβγc (species not stated), sequence (P31785 whole entry, chain 2 of 2, further chain): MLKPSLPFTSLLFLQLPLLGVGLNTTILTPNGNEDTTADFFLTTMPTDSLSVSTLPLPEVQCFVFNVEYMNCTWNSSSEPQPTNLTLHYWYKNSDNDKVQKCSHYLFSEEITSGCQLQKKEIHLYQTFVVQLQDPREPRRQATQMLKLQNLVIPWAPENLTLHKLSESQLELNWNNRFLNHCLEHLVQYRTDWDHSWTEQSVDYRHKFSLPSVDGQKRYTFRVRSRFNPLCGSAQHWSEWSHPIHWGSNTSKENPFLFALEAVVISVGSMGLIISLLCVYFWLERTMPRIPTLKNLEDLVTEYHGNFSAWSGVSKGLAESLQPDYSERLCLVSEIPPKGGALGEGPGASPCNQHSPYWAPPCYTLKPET

[7] = target: T1, IL-4 receptor αγc heterodimer (IL-4Rαγc) (human, UniProt P24394 26-232; P31785 23-254, limits assumed, biotinylated at the C-terminal biotin acceptor peptide (BirA)); assay: biolayer interferometry; γc on sensor, IL-4Rα in solution
T1 construct: also called γc when IL-4Rα is present in solution
T1 sequence 1: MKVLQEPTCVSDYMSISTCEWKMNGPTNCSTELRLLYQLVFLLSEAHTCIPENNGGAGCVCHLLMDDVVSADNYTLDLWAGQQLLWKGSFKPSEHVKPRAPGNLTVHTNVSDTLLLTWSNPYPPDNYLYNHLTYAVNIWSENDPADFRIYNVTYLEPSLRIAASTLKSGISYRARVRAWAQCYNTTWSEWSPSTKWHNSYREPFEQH
T1 sequence 2: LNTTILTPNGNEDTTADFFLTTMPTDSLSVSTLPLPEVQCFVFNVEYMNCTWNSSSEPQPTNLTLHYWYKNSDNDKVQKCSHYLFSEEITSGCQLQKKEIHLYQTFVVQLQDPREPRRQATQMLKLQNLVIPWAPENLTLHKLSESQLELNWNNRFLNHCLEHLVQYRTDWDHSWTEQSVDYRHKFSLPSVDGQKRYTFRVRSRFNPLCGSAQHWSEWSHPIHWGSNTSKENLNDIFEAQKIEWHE
Procedure: Less than 100 response units (RU) of each ligand was immobilized to minimize mass transfer effects. […] Surface regeneration for all interactions was conducted using 15 s exposure to 1 M MgCl2 in 10 mM sodium acetate pH 5.5. SPR experiments were carried out in HBS-P+ buffer (GE Healthcare) supplemented with 0.2% bovine serum albumin (BSA) at 25° C. and all binding studies were performed at a flow rate of […] to prevent analyte rebinding. Data was visualized and processed using the Biacore T100 evaluation software version 2.0 (GE Healthcare). Equilibrium titration curve fitting and equilibrium binding dissociation (KD) value determination was implemented using GraphPad Prism assuming all binding interactions to be first order. Biolayer interferometry: binding data were collected in a Octet RED96 (ForteBio, Menlo Park, Calif.) and processed using the instrument's integrated software using a 1:1 binding model. […] Analyte proteins were diluted from concentrated stocks into binding buffer.

human IL-4Rα = target: T2, human IL-4Rα (human, UniProt P24394 26-232, limits assumed, biotinylated); assay: biolayer interferometry
T2 construct: also called IL-4Rα receptor
T2 sequence (looked up): T1 sequence 1

[8] = target: murine IL-2 receptor βγc heterodimer (mIL-2Rβγc) (mouse) (UniProt P16297); assay: biolayer interferometry; biotin-mIL2Gamma on streptavidin sensor, MSA-Neo2 titrated 729 to 1 nM with saturating mIL2Beta

Kd [1]: 492 nM
Kd [2]: 8110 nM
Molecule: human IL-2 (hIL-2) (from UniProt P60568 21-153) (ligand)

Kd [4]: 301 nM
Kd [1]: 312 nM
Kd [5]: 2 nM
Kd [2]: 214 nM
Molecule: Super-2/Superkine (PDB:3QAZ) (ligand)
EC50 (CD25-) pSTAT5, human NK (YT, CD25-) cells [3]: 70 pM

binding result [7]: binds
binding result (human IL-4Rα): binds
B2: Neoleukin-4 (i.e. IL4_G2_neo2_40_1F_seq36_S11_MIF) (designed binder)
chain: PKKKIQIMAEEALKDALSILNIVKTNSPPAEEQLERFAKRFERNLWGIARLFESGDQKDEAEKAKRMIEWMKRIKTTASEDEQEEMANAIITILQSWFFS
notes: also called Neo-4

Kd [1]: 39.1 nM
B4: G2_neo2_40_1F_seq12 (designed binder)
chain: TEKKLQLLVEHALLDALMILNLWSESNEKLNRIITTMQSWIFTGRIDPDKAEELAKLVEELREEARERGIDTEDYVSNLKVILKELS

Kd [1]: 925 nM
B7: G2_neo2_40_1F_seq30 (designed binder)
chain: PEKKRQLLLEHILLDALMLLNLLETNPQNTESKFEDYISNAEVIAEELAKLMESLGLSDEAEKFKKIKQWLREVWRIWSSTNWSTLEDKARELLNRIITTIQSQIFY

Kd [1]: 71.5 nM
B9: G2_neo2_40_1F_seq16 (designed binder)
chain: TKKKIQLLVEHALLDALMILNLSSKSNEKLNRIITTMQSWIFNGTIDPDRARELAKLVEEIRDEMEKNGIDTEDYVSNLKVILEELA

Kd [1]: 2650 nM
Kd [2]: 6800 nM
B14: G1_neo2_40_1F_H1 (designed binder)
chain: STKKTQLLIEHALLDALDMSRNLPEPNEKLSRIITTMQSWIFTGKIDGDGAQQLAKEVEELEQEHEKRGEDVEDEASNLKVILLELA

Kd [1]: 392 nM
Kd [2]: 10100 nM
B15: G1_neo2_40_1F_H4 (designed binder)
chain: B14 chain with I9L, D18H, N22E, S31N, T36D, Q53D, E70G, E75Y

Kd [1]: 964 nM
Kd [2]: 68300 nM
B16: G1_neo2_40_1F_H2 (designed binder)
chain: B14 chain with I9L, D18H, S20R, Q53E, E70R, E75D

Kd [1]: 3830 nM
B17: G1_neo2_40_1F_H3 (designed binder)
chain: B14 chain with D18N, S20R, R21K, N22K, T36D, E70G, E75Y

Kd [1]: 568 nM
Kd [2]: 2430 nM
B18: G2_neo2_40_1F_seq36 (designed binder)
chain: PKKKIQLLAEHALLDALMILNIVKTNSQNAEEKLEDYASNVEVILEEIARLMESGDQKDEAEKAKRMKEWMKRIKTTASEDEQEEMANRIITLLQSWIFS

Kd [8]: 33.5 nM
B19: Mouse Serum Albumin (MSA) fusion to Neoleukin-2/15 (protein)
chain: GSDGGSHHHHHHGSGSENLYFQGSGEAHKSEIAHRYNDLGEQHFKGLVLIAFSQYLQKCSYDEHAKLVQEVTDFAKTCVADESAANCDKSLHTLFGDKLCAIPNLRENYGELADCCTKQEPERNECFLQHKDDNPSLPPFERPEAEAMCTSFKENPTTFMGHYLHEVARRHPYFYAPELLYYAEQYNEILTQCCAEADKESCLTPKLDGVKEKALVSSVRQRMKCSSMQKFGERAFKAWAVARLSQTFPNADFAEITKLATDLTKVNKECCHGDLLECADDRAELAKYMCENQATISSKLQTCCDKPLLKKAHCLSEVEHDTMPADLPAIAADFVEDQEVCKNYAEAKDVFLGTFLYEYSRRHPDYSVSLLLRLAKKYEATLEKCCAEANPPACYGTVLAEFQPLVEEPKNLVKTNCDLYEKLGEYGFQNAILVRYTQKAPQVSTPTLVEAARNLGRVGTKCCTLPEDQRLPCVEDYLSAILNRVCLLHEKTPVSEHVTKCCSGSLVERRPCFSALTVDETYVPKEFKAETFTFHSDICTLPEKEKQIKKQTALAELVKHKPKATAEQLKTVMDDFAQFLDTCCKAADKDTCFSTEGPNLVTRCKDALAGGGSGGSGGGSGGSGSGPKKKIQLHAEHALYDALMILNIVKTNSPPAEEKLEDYAFNFELILEEIARLFESGDQKDEAEKAKRMKEWMKRIKTTASEDEQEEMANAIITILQSWIFS

Kd [1]: 4.3 nM
Kd [2]: 214 nM
B21: G1_neo2_40_1F_M1 (designed binder)
chain: STEKTQLAAEHALRDALMLKHLLNEPNEKLARIITTMQSWQFTGKIDGDGAQELAKEVEELQQEHEVRGIDVEDYASNLKVILLHLA

Second part, the molecule before the results:

Molecule: Neoleukin-2/15 (i.e. G2_neo2_40_1F_seq36_S11) (designed binder)
Kd [1]: 38.4 nM
Kd [2]: 16.1 nM

B1: Neoleukin-2/15 internal disulfide-stapled variant (disulfide between residues 38 and 75) (designed binder)
chain: PKKKIQLHAEHALYDALMILNIVKTNSPPAEEKLEDYCFNFELILEEIARLFESGDQKDEAEKAKRMKEWMKRICTTASEDEQEEMANAIITILQSWIFS
modifications: disulfide bond between residues 38 and 75
Kd [6]: 1.3 nM

B3: Neoleukin-2/15 terminal disulfide-stapled variant (CNSN and NFQC added at the termini) (designed binder)
chain: CNSNKKKIQLHAEHALYDALMILNIVKTNSPPAEEKLEDYAFNFELILEEIARLFESGDQKDEAEKAKRMKEWMKRIKTTASEDEQEEMANAIITILQSWIFNFQC
modifications: disulfide bond between the added N-terminal and C-terminal cysteines
Kd [6]: 1.8 nM

B5: mouse IL-2 (mIL-2) (ligand, UniProt P04351 21-169, looked up)
chain: APTSSSTSSSTAEAQQQQQQQQQQQQHLEQLLMDLQELLSRMENYRNLKLPRMLTFKFYLPKQATELKDLQCLEDELGPLRHVLDLTQSKSFQLEDAENFISNIRVTVVKLKGSDNTFECQFDDESATVVDFLRRWIAFCQSIISTSPQ
Kd [1]: 126 nM
Kd [2]: 1500 nM

B6: G2_neo2_40_1F_seq26 (designed binder)
chain: TKKKYQLLIEHALLDALMILNLWSESNEKLNRIITTMQSWIFTGTYDPDKAEELEKLAKEIEDEARERGIDTEDYMSNLRVILKELS
Kd [1]: 27.8 nM

B8: G2_neo2_40_1F_seq27 (designed binder)
chain: TKKKAQLLAEHALLDALMLLNLSSESNERLNRIITWLQSIIFTGTYDPDMVKEAVKLADEIEDEMRKRGIDTEDYVSNLRVILQELA
Kd [1]: 13.6 nM

B10: G2_neo2_40_1F_seq04 (designed binder)
chain: TTKKIQLLVEHALLDALMILNLSSESNEKLNRIITTLQSWIFRGEIDPDRARELAKLLEEIREEMRKRGIDTEDYVSNMIVIIRELA
Kd [1]: 80 nM

B11: G2_neo2_40_1F_seq40 (designed binder)
chain: PEKKRQLLAEHALLDALMILNIIRTNSDNTESKLEDYISNLKVILEEIARLMESLGLSDEAEKAKEAMRLADKAGSTASEEEKKEAMNRVITWAQSWIFN
Kd [1]: 69.2 nM

B12: G1_neo2_40_1F (designed binder)
chain: B14 chain with I9A, D18M, S20L, R21N, N22L, S31N, Q53E, E70I, E75Y
Kd [1]: 7.9 nM
Kd [2]: 486 nM

B13: G1_neo2_40_1F_H5 (designed binder)
chain: B14 chain with D18H, N22K, Q53H, E70G, D71E
Kd [1]: 5120 nM
Kd [2]: 45300 nM

B20: G2_neo2_40_1F_seq29 (designed binder)
chain: EDYYSNLKVILEELAREMERNGLSDKAEEWRQWKKIVERIRQIRSNNSDLNEAKELLNRLITYIQSQIFEISERIRETDQEKKEESWKKWQLLLEHALLDVLMLLND
Kd [1]: 38.2 nM

B22: G1_neo2_40_1F_M3 (designed binder)
chain: B21 chain with L7H, H11D, K20R, H21N, G44E, H85Q
Kd [1]: 64.8 nM
Kd [2]: 402 nM

B23: G1_neo2_40_1F_M2 (designed binder)
chain: B21 chain with E3K, K4N, H11D, R14L, K20R, H21N, G44E, V67E, H85Q
Kd [1]: 886 nM
Kd [2]: 2600 nM
